B1: KRT13 (parent)
chain: TPGIDLTRVLAEMREQYEAMAERN
B2: FBXO34 (parent)
chain: PRYREDPCKQCKKKYVKGDVSLCR

Variants of: B1
Assay: protein stability index of a GFP-peptide fusion (GPS, HEK-293T) (PSI 1-6); higher = more stable
Conditions: c terminus: a fixed tail appended
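Also: lentivirally expressed fusions sorted by FACS into six bins by GFP to DsRed ratio, PSI derived from sequencing read proportions per bin multiplied by bin number.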

Protein stability index of substitutions, site by site:
R8: A 4.26 | D 2.73
P2: F 2.79 | Y 3.69 | T 3.81 | N 4.05 | E 3.16 | K 3.79 | C 3.36 | S 3.9 | V 2.6 | A 4.17 | M 2.97 | W 3.75 | L 2.86 | I 2.54 | D 3.69 | H 4.41
L6: C 4.79 | Q 5.01 | W 3.09 | H 3.99 | A 4.15 | G 4.98 | Y 3.37 | K 4.7 | F 3.98 | V 3.88 | S 5.29 | R 4.84 | E 4.69 | N 5.14 | T 5.4 | I 4.13 | D 3.84
T7: I 2.26 | L 2.17 | S 3.07 | V 2.81 | K 2.88 | G 3.36 | A 3.77 | H 3.81 | W 3.28 | E 4.25 | N 3.92 | R 2.8 | P 4.16 | D 4.45 | F 2.24
I4: F 3.63 | H 4.85 | Y 3.75 | C 4.87 | K 3.45 | P 4.39 | V 3.8 | S 4.48 | T 3.31 | R 4.14 | N 2.62 | A 3.97 | Q 3.72
T1: Y 4.34 | S 3.49 | W 3.5 | E 4.3 | M 3.9 | N 4.26 | K 3.85 | G 4.59 | F 3.27 | D 3.47 | I 4.36 | H 4.28 | P 4.16 | C 3.45 | V 2.67 | L 2.71 | Q 3.13
G3: C 2.63 | I 3.38 | V 2.11 | H 3.35 | L 2.81 | E 2.78 | R 3.39 | Q 3.23 | D 3.1 | T 2.96 | K 1.99 | N 3.12 | W 3.37 | A 3.35 | Y 2.34 | F 2.28 | M 2.38 | P 2.67
D5: V 2.63 | S 3.86 | P 4.69 | N 3.88 | A 5.15 | W 1.72 | K 2.21 | I 2.66 | G 1.58 | H 4.29 | Q 3.8 | E 4.54 | F 2.19 | C 2.73 | T 3.68 | M 3.81

Variants of: B2
Assay: as above
Conditions: c terminus: a fixed tail appended

Protein stability index: each site, then its substitutions
L22: I 3.12 | S 3.29 | H 2.88 | N 3.01 | G 3.18 | C 3.15 | V 3.23 | Q 2.32 | A 3.12 | D 3.01 | Y 2.54 | K 3.6 | T 2.93 | P 2.41 | M 2.6 | E 3.48 | F 2.58 | W 2.08 | R 3.31
D19: Y 2.56 | R 3.41 | M 2.84 | E 3.31 | N 3.52 | Q 2.71 | T 2.97 | C 3.07 | A 3.15 | I 3.18 | L 2.43 | F 2.23 | S 2.38 | V 2.07 | H 2.88 | P 2.66 | G 2.63 | K 3.14 | W 2.56
G18: M 2.18 | H 3.23 | P 3.13 | V 2.46 | T 2.5 | Q 3.2 | I 2.35 | Y 2.35 | N 2.92 | L 2.25 | W 2.3 | K 2.69 | R 3.31 | F 2.16 | D 2.86
